According to patent US20260091061A1 (LEGEND BIOTECH IRELAND, published 2026):

T1: mouse GCC (mouse, UniProt Q3UWA6 20-1072)
T1 construct: whole, on cells; also called mGCC; HEK293T.mGCC.Luc cells
T1 sequence (looked up): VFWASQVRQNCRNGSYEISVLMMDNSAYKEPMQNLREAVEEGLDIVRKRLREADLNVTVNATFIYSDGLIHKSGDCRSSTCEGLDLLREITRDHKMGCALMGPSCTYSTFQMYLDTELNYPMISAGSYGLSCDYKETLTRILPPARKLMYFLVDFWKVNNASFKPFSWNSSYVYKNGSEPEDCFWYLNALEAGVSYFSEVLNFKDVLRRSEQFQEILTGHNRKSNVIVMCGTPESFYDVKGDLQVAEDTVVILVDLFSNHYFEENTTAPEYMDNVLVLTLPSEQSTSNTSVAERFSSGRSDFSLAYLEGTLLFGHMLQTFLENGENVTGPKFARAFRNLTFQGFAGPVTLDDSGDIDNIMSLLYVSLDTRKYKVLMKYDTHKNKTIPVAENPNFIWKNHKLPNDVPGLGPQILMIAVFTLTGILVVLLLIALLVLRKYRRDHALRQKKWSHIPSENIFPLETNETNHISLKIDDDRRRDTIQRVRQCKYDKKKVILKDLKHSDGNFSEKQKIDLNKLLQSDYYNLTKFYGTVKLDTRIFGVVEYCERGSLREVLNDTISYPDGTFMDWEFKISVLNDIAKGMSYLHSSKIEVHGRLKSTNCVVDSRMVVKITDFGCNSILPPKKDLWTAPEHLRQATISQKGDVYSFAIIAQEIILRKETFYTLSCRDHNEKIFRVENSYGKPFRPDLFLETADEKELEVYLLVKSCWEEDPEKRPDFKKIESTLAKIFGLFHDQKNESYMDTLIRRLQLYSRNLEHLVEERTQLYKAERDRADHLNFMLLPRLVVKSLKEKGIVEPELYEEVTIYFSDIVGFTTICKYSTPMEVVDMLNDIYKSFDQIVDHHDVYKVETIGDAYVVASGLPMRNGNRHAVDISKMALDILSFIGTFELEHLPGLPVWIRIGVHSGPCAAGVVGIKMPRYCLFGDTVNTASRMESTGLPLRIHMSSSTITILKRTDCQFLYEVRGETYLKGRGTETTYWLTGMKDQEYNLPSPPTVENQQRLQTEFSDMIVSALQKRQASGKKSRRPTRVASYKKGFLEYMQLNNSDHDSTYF


What was measured:
human GCC [1] = biological target: T2, human GCC (human, UniProt P25092 24-1073); experiment: screen of clone supernatants: cell based ELISA on HEK293T.huGCC.Luc cells and ELISA on recombinant human GCC protein (ACRO GUC-H52H5)
T2 construct: whole, on cells; also called huGCC; Guanylyl cyclase C

huGCC-his = biological target: T3, huGCC-his (human, UniProt P25092 24-430, limits assumed); experiment: SPR, Biacore T200; antibody captured via Fc, GCC as analyte; 1:1 model
T3 construct: Soluble his-tagged human GCC used as analyte on Biacore; also called GCC (SPR analyte); not shown: his tag

human GCC [2] = biological target: T2, human GCC; experiment: flow cytometry on HEK293T.huGCC.Luc cells, percentage of binding
mouse GCC = biological target: T1, mouse GCC; experiment: flow cytometry on HEK293T.mGCC.Luc cells, PE goat anti-mouse IgG secondary; Binding % = cells with antibody bound / total cells

T2 sequence (P25092 24-1073): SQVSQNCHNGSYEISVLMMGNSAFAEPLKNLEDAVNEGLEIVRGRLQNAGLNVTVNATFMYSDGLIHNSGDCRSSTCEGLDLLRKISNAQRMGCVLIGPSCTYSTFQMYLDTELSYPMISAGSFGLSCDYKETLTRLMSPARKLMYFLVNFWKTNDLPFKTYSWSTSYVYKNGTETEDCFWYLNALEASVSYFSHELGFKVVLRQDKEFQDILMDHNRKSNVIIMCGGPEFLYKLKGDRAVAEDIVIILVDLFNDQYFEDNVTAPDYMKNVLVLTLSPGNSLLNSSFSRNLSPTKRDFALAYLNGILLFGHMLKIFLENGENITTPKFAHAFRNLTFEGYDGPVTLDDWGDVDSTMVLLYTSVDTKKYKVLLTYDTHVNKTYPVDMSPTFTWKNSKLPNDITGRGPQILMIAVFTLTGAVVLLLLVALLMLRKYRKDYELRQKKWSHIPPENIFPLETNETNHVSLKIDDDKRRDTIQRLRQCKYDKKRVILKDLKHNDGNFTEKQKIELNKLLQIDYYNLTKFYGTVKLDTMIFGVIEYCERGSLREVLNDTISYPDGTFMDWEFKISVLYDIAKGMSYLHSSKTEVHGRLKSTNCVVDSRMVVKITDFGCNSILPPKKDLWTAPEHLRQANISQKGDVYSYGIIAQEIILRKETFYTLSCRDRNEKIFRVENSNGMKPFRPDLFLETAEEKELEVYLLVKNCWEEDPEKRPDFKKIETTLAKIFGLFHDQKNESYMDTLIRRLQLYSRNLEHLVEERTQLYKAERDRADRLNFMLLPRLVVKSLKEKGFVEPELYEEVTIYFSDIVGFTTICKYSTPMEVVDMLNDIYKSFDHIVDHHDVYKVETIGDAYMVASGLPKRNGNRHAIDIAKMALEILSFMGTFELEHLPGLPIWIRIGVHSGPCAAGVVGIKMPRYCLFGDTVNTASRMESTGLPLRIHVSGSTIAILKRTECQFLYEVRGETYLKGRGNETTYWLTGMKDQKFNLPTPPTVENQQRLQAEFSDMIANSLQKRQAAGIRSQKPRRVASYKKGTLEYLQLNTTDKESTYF
T3 sequence (P25092 24-430 limits assumed): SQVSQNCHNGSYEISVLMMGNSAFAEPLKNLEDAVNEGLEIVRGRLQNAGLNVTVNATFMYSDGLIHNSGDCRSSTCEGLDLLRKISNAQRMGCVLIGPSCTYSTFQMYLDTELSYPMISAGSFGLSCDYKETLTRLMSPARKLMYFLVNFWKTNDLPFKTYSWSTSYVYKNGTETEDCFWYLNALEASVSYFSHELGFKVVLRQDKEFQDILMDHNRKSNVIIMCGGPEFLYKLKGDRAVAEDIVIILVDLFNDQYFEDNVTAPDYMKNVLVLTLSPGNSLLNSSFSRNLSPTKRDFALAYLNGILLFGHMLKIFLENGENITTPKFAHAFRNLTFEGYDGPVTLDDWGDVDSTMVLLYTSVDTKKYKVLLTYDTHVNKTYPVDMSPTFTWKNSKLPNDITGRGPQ

Binder | binding result (human GCC [1]) | other results
VHHA2322 (VHH, Screened as E. coli culture supernatant and detected with an anti-cmyc antibody) VHH: QVHLVESGGGSVQSGGSLRLSCAASGYTGRRLCRGWFRQTPGKEREGVATITLSGRASYADSVKGRFTISQDNAKNTLYLQMNGLKPEDTAMYFCAEVRSADAEWLNPLKCHPDRLGLAGVDWGQGTQVTVSS | binds | 
VHHA2493 (VHH, Screened as E. coli culture supernatant and detected with an anti-cmyc antibody) VHH: QMQLVESGGGSVQSGGSLRLSCATNEPPYSIYCMAWFRQAPGKARERVAAILNAGGTRYADSVKGRFTISRDNAAKTFALQMNSLKPEDTGTYYCATRADAGRWGSACTTELDFGNWGQGTQVTVSS | binds | 
VHHC0806 (VHH, Screened as E. coli culture supernatant and detected with an anti-cmyc antibody) VHH: QVHLVESGGGSVQSGGSLRLSCAGSGYTYSTHCMGWFRQAPGKERERVATIDKDGRTSHYADAVKGRFTISQDNAKNTLYLQMSSLNPEDTAMYYCAAAEHRGAWCPLWDRSAPLLAHIHWGQGTQVTVSS | binds | 
VHHC0464 (VHH, Screened as E. coli culture supernatant and detected with an anti-cmyc antibody) VHH: QVQLQESGGGLVQAGGSLRLSCLASGLAFPSYAMGWFRQAPGKEREWVSCVTRSGGDTLYADSAKGRFAISRDNAKNTLYLQMNSLKPEDTAMYYCAAALFCANLRRNKDNYWGQGTQVTVSS | binds | 
VHHC0467 (VHH, Screened as E. coli culture supernatant and detected with an anti-cmyc antibody) VHH: QMQLVESGGGLVQAGGSLRLSCIASGLTFPTYAMGWFRQAPGKEREWVSCVTRSGGDTLYADSAKGRFTISRDNAKNTLFLQMNSLKPEDTAMYYCVAALFCHNLRLNTGNYWGQGTQVTVSS | binds | 
VHHC0494 (VHH, Screened as E. coli culture supernatant and detected with an anti-cmyc antibody) VHH: QVHLVESGGGSVQSGGSLRLSCATSASPYSMHCMGWFRQAPGKARERVASILNAGSTTYADSVKGRFTISRDNAEKTLYLQMNSLKPEDTGTYYCAARPDAGRWRSACTTELDFGYWGQGTQVTVSS | binds | 
VHHC0708H2-mIgG1Fc (Fc fusion, also called humanized chimeric antibody VHHC0708H2-mIgG1Fc) EVQLVESGGGVVQPGGSLRLSCAASGYTYSRYCMGWVRQAPGKEREGVALIASDGTTTYADSVKGRFTISQDNSKNTLYLQMNSLRAEDTAVYYCAADAVNWYGSICASMIRRKNPAFGYWGQGTLVTVSSVPRDCGCKPCICTVPEVSSVFIFPPKPKDVLTITLTPKVTCVVVDISKDDPEVQFSWFVDDVEVHTAQTQPREEQFNSTFRSVSELPIMHQDWLNGKEFKCRVNSAAFPAPIEKTISKTKGRPKAPQVYTIPPPKEQMAKDKVSLTCMITDFFPEDITVEWQWNGQPAENYKNTQPIMNTNGSYFVYSKLNVQKSNWEAGNTFTCSVLHEGLHNHHTEKSLSHSPGK |  | Kd (huGCC-his): 1.02 nM
VHHC0524 (VHH, Screened as E. coli culture supernatant and detected with an anti-cmyc antibody) VHH: QVQLAESGGGSVQSGGSLRLSCAASGYTYSRYCMAWFRQAPGKEREGVAVIVSDNDGSATYADSVKGRFTISQDNAKNMLYLQMNSLKPEDTAMYYCAADPRVWYGGTCRAGRTDFLYWGQGTQVTVSS | binds | 
VHHC0694 (VHH, Screened as E. coli culture supernatant and detected with an anti-cmyc antibody) VHH: QVQLVESGGGSVQSGGSLRLSCAASGYTYSRYCMAWFRQAPGKEREGVAVIDPDGSTTYADSVKGRFTISQDNAKNTLYLQMNSLKPEDTAMYYCAADPRVWYGGTCRAGRTDFSNWGQGTQVTVSS | binds | 
VHHC0694H2-mIgG1Fc (Fc fusion, also called humanized chimeric antibody VHHC0694H2-mIgG1Fc) QVQLVESGGGVVQPGRSLRLSCAASGYTYSRYCMAWFRQAPGKEREGVAVIDPDGSTTYADSVKGRFTISQDNSKNTLYLQMNSLRAEDTAVYYCAADPRVWYGGTCRAGRTDFSNWGQGTMVTVSSVPRDCGCKPCICTVPEVSSVFIFPPKPKDVLTITLTPKVTCVVVDISKDDPEVQFSWFVDDVEVHTAQTQPREEQFNSTFRSVSELPIMHQDWLNGKEFKCRVNSAAFPAPIEKTISKTKGRPKAPQVYTIPPPKEQMAKDKVSLTCMITDFFPEDITVEWQWNGQPAENYKNTQPIMNTNGSYFVYSKLNVQKSNWEAGNTFTCSVLHEGLHNHHTEKSLSHSPGK |  | EC50 (human GCC [2]): 0.0315 nM; Kd (huGCC-his): 1.34 nM; binding result (mouse GCC): no binding (tested: 1000 nM)
VHHA2322H2-mIgG1Fc (Fc fusion, also called humanized chimeric antibody VHHA2322H2-mIgG1Fc) QVHLVESGGGVVQPGRSLRLSCAASGYTGRRLCRGWFRQAPGKEREGVATITLSGRASYADSVKGRFTISQDNSKNTLYLQMNSLRAEDTAVYFCAEVRSADAEWLNPLKCHPDRLGLAGVDWGQGTTVTVSSVPRDCGCKPCICTVPEVSSVFIFPPKPKDVLTITLTPKVTCVVVDISKDDPEVQFSWFVDDVEVHTAQTQPREEQFNSTFRSVSELPIMHQDWLNGKEFKCRVNSAAFPAPIEKTISKTKGRPKAPQVYTIPPPKEQMAKDKVSLTCMITDFFPEDITVEWQWNGQPAENYKNTQPIMNTNGSYFVYSKLNVQKSNWEAGNTFTCSVLHEGLHNHHTEKSLSHSPGK |  | EC50 (human GCC [2]): 0.0192 nM; Kd (huGCC-his): 1.65 nM; binding result (mouse GCC): no binding (tested: 1000 nM)
VHHC0708 (VHH, Screened as E. coli culture supernatant and detected with an anti-cmyc antibody) VHH: QVQLEESGGGSVQSGGSLRLSCAASGYTYSRYCMGWVRQAPGKEREGVALIASDGTTTYADSVKGRFTISQDNAKNTLYLQMNSLKPEDTAMYYCAADAVNWYGSICASMIRRKNPAFGYWGRGTQVTVSS | binds | 
